Data on 53 sequences can be found in the supplement of paper PMC10567573.

This data set is described as follows: protein stability index of a GFP-peptide fusion (GPS, HEK-293T) (PSI 1-6); higher = more stable.
The mark [1] stands for this setting: treatment: DMSO, c terminus: a fixed tail appended.
[2] abbreviates: treatment: MLN4924 1 uM, 8 h, c terminus: a fixed tail appended.

± gives the standard deviation.
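Also: 24-mer peptide tiles fused after GFP, lentivirally expressed, FACS-sorted into six equal bins by GFP/DsRed ratio, decoded by Illumina sequencing, PSI is the read-weighted mean bin number.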

With GRDSEGPAEGEGRLGRCMRRLRDM [KCNG1], the protein stability index reads like this: under setting [1], 4.99 ± 0.15; under setting [2], 4.76 ± 0.15.

Sequence GRFKLSIPHTHLLATLDPLALDRE [WDR88] returned a protein stability index under setting [1] of 2.76 ± 0.24 and a protein stability index under setting [2] of 2.76 ± 0.34.

As to GRHHSQSTEVQAHPYSTTFQESAS [TEKT4], the protein stability index reads like this: under setting [1], 4.31 ± 0.2; under setting [2], 4.46 ± 0.3.

Regarding GRIIAVFKPKNEEPYGHLNPKWTK [PI4K2A], the protein stability index was found to be 2.09 ± 0.24 under setting [1] and 2.2 ± 0.44 under setting [2].

For GRYVKENCKPLKSYMLQDSLEHVQ [CLK3], the protein stability index reads like this: under setting [1], 3.1 ± 0.23; under setting [2], 3.08 ± 0.48.

As to GSWGSFQLPGLLNFGEFKCSDSDK [CLCN6], the protein stability index reads like this: under setting [1], 3.99 ± 0.29; under setting [2], 4.17 ± 0.57.

GTILNYLRDGAVPLPESRREIEEL [KCTD10]: the protein stability index amounted to 3.98 ± 0.19 under setting [1] and 4.15 ± 0.073 under setting [2].

Turning to GVSKVGLRKIIDFIYTAKLSLNMD [KLHL13], the protein stability index by setting is: under setting [1], 2.81 ± 0.75; under setting [2], 2.83 ± 0.63.

As to GWETRGDRKARKPLVEKKRRARIN [HES6], the protein stability index runs as follows: under setting [1], 4.31 ± 0.36; under setting [2], 4.54 ± 0.12.

On to GYEKRNLARVPKLDLKRQYDRVAQ [CHGB], for which the protein stability index runs as follows: under setting [1], 3.37 ± 0.55; under setting [2], 3.11 ± 0.29.

Consider GYRCFVCPVEYNNDTNSFTVDCEP [CDS2], for which the protein stability index worked out at 2.35 ± 0.47 under setting [1] and 2.58 ± 0.51 under setting [2].

With HDCAESGSLDIMKMLLMYCAKMEK [FEM1C], the protein stability index reads like this: under setting [1], 2.16 ± 0.3; under setting [2], 2.13 ± 0.22.

Take HDEDIKTTNVKSASRQKTSLGIEL [ZNF396]: the protein stability index is, setting by setting: under setting [1], 4.5 ± 0.27; under setting [2], 4.58 ± 0.14.

For the sequence HDESPGNNVVDISVPPTTDGQKPN [RAB11B], the protein stability index reads like this: under setting [1], 5.46 ± 0.3; under setting [2], 5.57 ± 0.12.

As for HDGKNQPGVAYPAFLGPDEAFALP [SPSB4], the protein stability index was found to be 4.12 ± 0.3 under setting [1] and 4.06 ± 0.21 under setting [2].

As for HDPLWRRHCKKYWLISEEEKTQKN [FBXO3], the protein stability index was 3.56 ± 0.45 under setting [1] and 3.99 ± 0.34 under setting [2].

With HECVNMEESYYCRCHRGYTLDPNG [MATN2], the protein stability index by setting is: under setting [1], 3.44 ± 0.67; under setting [2], 3.36 ± 0.52.

Turning to HENAVQGSAVEVQTYQPPWKALSE [ISL2], the protein stability index by setting is: under setting [1], 4.15 ± 0.23; under setting [2], 4.02 ± 0.17.

On to HFDATNLHKQTASDLLDEKEIAKN [FEM1C], for which the protein stability index runs as follows: under setting [1], 5.38 ± 0.15; under setting [2], 5.31 ± 0.29.

HFGWYLGWGDCVWLPYLYTLQGLY [DHCR7]: the protein stability index was found to be 3.09 ± 0.84 under setting [1] and 3.29 ± 0.11 under setting [2].

For HFPASPFWSVMFFLMLINLGLGSM [SLC6A17], the protein stability index reads like this: under setting [1], 3.67 ± 0.42; under setting [2], 3.4 ± 0.25.

With HFQEAIDFIDCVREKGGKVLVHCE [DUSP5], the protein stability index reads like this: under setting [1], 2.76 ± 0.39; under setting [2], 2.76 ± 0.53.

Turning to HFWQLFNALTLFNLAQDPQCKEWQ [TMEM120A], the protein stability index was 3.17 ± 0.61 under setting [1] and 3.72 ± 0.76 under setting [2].

As to HGLLGSPVRAAASSPVTTLTQTMH [CDC25B], the protein stability index under setting [1] was 3.7 ± 0.21 and the protein stability index under setting [2] was determined as 3.79 ± 0.17.

Take HGPQLPTGIEGNWGRLLEQVGTMA [ZBED2]: the protein stability index runs as follows: under setting [1], 3 ± 0.35; under setting [2], 3.08 ± 0.24.

Turning to HGWLRPEMRTKEQILELLVLEQFL [ZNF263], the protein stability index is, setting by setting: under setting [1], 2.46 ± 0.47; under setting [2], 2.61 ± 0.43.

As to HIFGDLDSYIPLHEDLLTRIGEAT [NET1], the protein stability index reads like this: under setting [1], 2.96 ± 0.14; under setting [2], 2.93 ± 0.17.

As to HIKLHSGEKPFKCHLCNYACRRRD [IKZF1], the protein stability index reads like this: under setting [1], 2.55 ± 0.23; under setting [2], 2.93 ± 0.61.

For the sequence HIRHLGWNPDARYSEHFLQEAKLL [GLT8D2], the protein stability index stood at 2.49 ± 0.17 under setting [1] and 2.79 ± 0.4 under setting [2].

On to HLEGYHGTAGDSMSYHSGSVFSAR [TNXB], for which the protein stability index was 3.16 ± 0.43 under setting [1] and 3.47 ± 0.44 under setting [2].

As for HQPVVRQCGPQTGLQSPGTLQPPE [TBX5], the protein stability index worked out at 4.41 ± 0.27 under setting [1] and 4.63 ± 0.12 under setting [2].

Take HRIWMYNCHIGGSFSEETEKKFEH [LOXL2]: the protein stability index is, setting by setting: under setting [1], 2.42 ± 0.21; under setting [2], 2.62 ± 0.34.

Regarding HRWQVDLQLGDGGGCTVGVAGEGV [TRIM15], the protein stability index is 3.5 ± 0.27 under setting [1] and 3.38 ± 0.43 under setting [2].

On to HSFQSSHRPSLNSVSLQINCQSVA [DLC1], for which the protein stability index by setting is: under setting [1], 2.95 ± 0.29; under setting [2], 2.98 ± 0.28.

HTLNNLVEKLLREEAEGARWTSYR [TRIM35]: the protein stability index runs as follows: under setting [1], 2.48 ± 0.2; under setting [2], 2.57 ± 0.19.

Turning to HTRSITSCCFDPDSQRVASVSLDR [WDR88], the protein stability index under setting [1] came to 3.53 ± 0.4 and the protein stability index under setting [2] turned out to be 3.44 ± 0.39.

IAMTSGTVQPKQDAFANFANFSK [CLINT1]: the protein stability index runs as follows: (treatment: DMSO, c terminus: native) 4.22 ± 0.22; (treatment: MLN4924 1 uM, 8 h, c terminus: native) 4.17 ± 0.31.

In the case of IANPNSLNHVKSMWYPEIKHFCPR [RHOBTB1], the protein stability index runs as follows: under setting [1], 2.22 ± 0.13; under setting [2], 2.4 ± 0.26.

Take IASFIRGPNPSKLIQQFLTLRPDQ [CDS2]: the protein stability index is 2.24 ± 0.17 under setting [1] and 2.33 ± 0.22 under setting [2].

As for IDHYVGIARDQTKSIVEKIQAKLP [RTN3], the protein stability index worked out at 3.05 ± 0.074 under setting [1] and 3.22 ± 0.39 under setting [2].

In the case of IELQGVPNDEVHPLLGVKGDGKSK [RBBP5], the protein stability index was 5.14 ± 0.19 under setting [1] and 4.96 ± 0.21 under setting [2].

For the sequence IFFDDLDSPSKEEVFRFVQSCARA [CPOX], the protein stability index under setting [1] worked out at 2.45 ± 0.38 and the protein stability index under setting [2] was 2.69 ± 0.65.

On to IGTPPSVLKRQRKRRVALSPVTEN [MYBL2], for which the protein stability index is, setting by setting: under setting [1], 4.22 ± 0.56; under setting [2], 4.49 ± 0.14.

In the case of IIGDYFSDQDPRVRTAAIKAMLQL [INTS4], the protein stability index runs as follows: under setting [1], 2.19 ± 0.28; under setting [2], 2.33 ± 0.2.

Take IIQFVESGDDKNSNYFSMDSMEGK [TRIM29]: the protein stability index under setting [1] came to 3.46 ± 0.24 and the protein stability index under setting [2] is 3.71 ± 0.29.

For IIVTIMASQSLGSPMYFFLASLSF [OR4A15], the protein stability index runs as follows: under setting [1], 3.29 ± 0.57; under setting [2], 3.13 ± 0.2.

With IKQKLGMNLMNELKQNFSKSWHDM [TPD52L1], the protein stability index runs as follows: under setting [1], 2.09 ± 0.2; under setting [2], 1.98 ± 0.35.

With ILHGTRGELLLDVAWHPVRPIIAS [RBBP5], the protein stability index runs as follows: under setting [1], 2.51 ± 0.33; under setting [2], 2.52 ± 0.25.

For ILKRRSDEALERCQILELLNAELE [CCDC89], the protein stability index reads like this: under setting [1], 2.68 ± 0.34; under setting [2], 3 ± 0.42.

ILKRRYYRQHCTLELGSYIKDLSV [CTDNEP1]: the protein stability index reads like this: under setting [1], 2.46 ± 0.56; under setting [2], 2.25 ± 0.66.

As for ILTEETEVKGTLEGDVCGVEPPGP [PBXIP1], the protein stability index reads like this: under setting [1], 5.14 ± 0.39; under setting [2], 5.42 ± 0.24.

IMLLDKNVPNPRIKLIDFGIAHKI [DAPK3] yielded a protein stability index under setting [1] of 2.89 ± 0.73 and a protein stability index under setting [2] of 2.52 ± 0.46.

Consider INQEELRALEEVEMKLQKNFLTQR [C10orf62], for which the protein stability index by setting is: under setting [1], 3.66 ± 0.39; under setting [2], 3.83 ± 0.34.
